Measurements: paper PMC5892457, “Characterisation of novel biomass degradation enzymes from the genome of Cellulomonas fimi” (Enzyme and Microbial Technology, 2018)

Legend:
Test in all cases: purified protein
Assay type in all cases: biochemical, Cellulomonas fimi
purified protein [1] = substrate: O=[N+]([O-])c1ccccc1O[C@@H]1O[C@H](CO)[C@@H](O[C@@H]2O[C@H](CO)[C@@H](O)[C@H](O)[C@H]2O)[C@H](O)[C@H]1O; details: pH 6.0, 60 °C, partially purified enzyme, printed value differs between text and Table 3
purified protein [2] = substrate: O=[N+]([O-])c1ccccc1O[C@@H]1OC[C@@H](O)[C@H](O)[C@H]1O; details: pH 6.0, 45 °C, partially purified enzyme, points at 20 mM and above excluded (substrate precipitation)
purified protein [3] = substrate: O=[N+]([O-])c1ccc(O[C@@H]2O[C@@H](CO)[C@H](O)[C@H]2O)cc1; details: pH 6.5, 45 °C, partially purified enzyme

B1: XynF (Cellulomonas fimi ATCC 484) (protein)
chain: AGSTLQAAAAESGRYFGTAIAASRLSDGTYTGIANREFNMITAENEMKMDATEPNRGQFSYSNGDRIVNWARQNGKQVRGHALAWHSQQPGWMQNLSGTDLRNAMLNHVTQVATYYRGKIYAWDVVNEAYADGSSGARRDSNLQRTGNDWIEAAFRAARAADPNAKLCYNDYNTDNWSHAKTQGVYNMVKDFKARGVPIDCVGFQAHFNSGNPVPSNYHTTLQNFADLGVDVQITELDIEGSGSSQAQQYQGVVQACLAVSRCTGITVWGVRDTDSWRASGTPLLFDGSGNKKAAYTSVLNALNAGGTTTPTPNPTNPTPTPTPTNPGGGSPSCTATYSEGQKWGDRFNGTVTIRATTNISSWQSTVTVRSPQKIIATWNGSPTWDSSGNVMTMRPSGSGALAAGQSTSFGFTVQHNGNWTWPSVTCAAS
notes: ORF with TAT signal peptide and CBMII as BioBrick, E. coli JM109, untagged; partially purified (DEAE-, CM-Sepharose)
Work on B1 yielded a Km (purified protein [1]) of 58 mM.

B2: BxyF (Cellulomonas fimi ATCC 484) (protein)
chain: MTRRLVPELEVRRHLVEDYADFTQIPEAVVARWKAPFGPPEDWDLTVVDHTVPGPHGPVPVRVYTPVGTPPDGGRACLVWMHGGAFSWGDLDMAEAHEVARGVAGRADVVVVSVDYRLCPVMPELGGTVGDRVDERGEPVRFPVPQDDCAAVLDAVRADPARFGVDAARVAIGGASAGAFLAAAVTLRAVEDGRAPWQTLLVYPMLHPRVPALGTELAEAVEAAPRALQLPAWMVEATNRTVLGREPEPSDDEAFPGLAARLEGFPPTYVENGELDAFRASGERFSTRLRAAGVDVVEVTRSGVPHGHLDWVGFGPARDTLDALAQRLRAPSAADRQALDELRVDGAPASDAPLHHVWNRCVGAGRANEALRADWQAHLREAVDVLGVRSVRFHGLFHDDMFVYRSTYGGGFAPPEVLPEPLITFSYVDMVFDALLDAGARPFVELGFMPRELATQTETLFWWKAHCSPPTDMAEWVRLVSETVRHWIERYGLDEVRQWRFEVWNEPNLVPHFWTGTRTEYFALYEATARALKAIDLQLRVGGPSTSVFVPDARYAGETYDHAAEFATGRAPDPDALDWQPVWVRELVDYCAERDLPLDFLSTHLYPTDYAADGTGSGVTAIHRHVDATEQDLRLLQELIAASPYPDAELHITEWSSSPSSRDRTHDTLFAATYITRAFLKGAALADSISYWTFTDIFEEGGAGLGPFHGGFGFVNEQGIHKPTFHAVAMLNRLGDRVVHQDEHGIITRSSGDGHVSAVFLNYPAEMGTRGVEQHDTYAAARAYREIGTARRVRRTVAGLEPGTVFQVEVLDWEHGNAAEAWHQMGEPLNLTRAQTTELKTVADDLRRWTITVPDSGVLEIDLDLPAWAVASVAPVTPTPSPTTNDAPSPTSSRQG
notes: full ORF as BioBrick, E. coli JM109, untagged; partially purified (DEAE-Sepharose, phenyl-agarose)
Work on B2 yielded a Km (purified protein [2]) of 1.7 mM.

B3: AfsB (Cellulomonas fimi ATCC 484) (protein)
chain: MFPVRLTLDPAFRVGPVRRRTFGSFVEHLGRCVYTGIHDPGHPTADADGFRKDVLELTRELGVSTVRYPGGNFVSGYRWEDGVGPVEQRPTRLDLAWHSLEPNTVGVDEFMRWAALAEVEPMMAVNLGTRGVQEALDLLDYCNGTAPTYWADQRRANGATDPYAIKMWCLGNEMDGPWQIGSKTAHEYGRLAAETGRAMKMVDPTLELVACGSSGVVMPTFGEWERIVLSEAYEQVDYVSAHAYYWEEDGDLGSFLASATDMDHFVESVTATADAVRAHKKVSKRIHISFDEWNVWYQKRAESRPPTGDDWPVAPVLLEDRYNVADAVVVGNLLISLLRHTDRVHAASLAQLVNVIAPIMTEPGGRSWKQTIFHPFAQASRYAAGDVLQVAIDAPTYETARYGDAALVDAVATRDPETGATTLFAVNRSLTEPALLEVDTRALPGLRVLDASTLSNPDHTWAATADDDTSVAPRANTTAEIRDGRLTVQVPPVSWNVVRLGA
notes: as for B2
Work on B3 yielded a Km (purified protein [3]) of 6.8 mM.
